Reference: article PMC6715715 (Communications Biology, 2019)

T1: AtcC-6His (SO_1846) (Shewanella oneidensis MR-1, UniProt Q8EFW9 1-298)
T1 construct: AtcC (SO_1846) of Shewanella oneidensis MR-1, 34 kDa; pBad33-AtcC was made by moving the insert of pET-AtcC, so both give AtcC with a C-terminal 6-His tag; also called AtcC with a 6His-tag; not shown: His6, C-terminal, kept
T1 sequence (looked up): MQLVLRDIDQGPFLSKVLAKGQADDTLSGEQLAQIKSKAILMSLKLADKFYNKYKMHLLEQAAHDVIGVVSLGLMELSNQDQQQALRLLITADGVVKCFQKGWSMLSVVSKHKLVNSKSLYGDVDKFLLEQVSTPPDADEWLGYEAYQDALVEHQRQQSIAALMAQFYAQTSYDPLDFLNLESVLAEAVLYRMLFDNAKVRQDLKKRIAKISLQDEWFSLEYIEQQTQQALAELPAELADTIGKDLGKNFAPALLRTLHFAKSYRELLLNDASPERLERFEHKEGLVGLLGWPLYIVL

B1: Strep-AtcB (natural protein, Shewanella oneidensis MR-1, UniProt Q8EFW7 1-252, looked up)
chain: MNTSLIEITVAEIKELADVEPKQASKRFELIATTMNDEQLVEVIEKMDIVTLTQINSHHDISCPSIMSELMTPEQIRDIVCQQPLYWEEKIKNNAEELIQHTFDFLTYLIRIQDSEEKQTAILECIAEDPAGLFYLSIPFIEMMLGEGHDDEDHINDYYDDEEDTDTIGYDSRVASEEAHSFSLDDPRSLMALIHELAPDVEKAIKNLLRNESSGWETIINKFVNELVIQAKEKNQVTDEYAEVDDMFSFLD
notes: AtcB (SO_1848) of Shewanella oneidensis MR-1, 29 kDa; also called AtcB with a Strep-tag; purified AtcB
B2: AtcJ-6His (Adaptation to cold protein J, SO_1850) (natural protein, Shewanella oneidensis MR-1, UniProt Q8EFW5 1-94, looked up)
chain: MINHFSVLGIKPSAKEDDIKKAYRRLSNKYHPDKLLGASDEEKEQASQQLERVKKAYEVLSDPKLRNAFIRDFNNVIVTDPNSAMRELWDQFYP
notes: AtcJ (SO_1850) of Shewanella oneidensis MR-1, a 94-amino acid J-domain protein (J-domain 1-73 and a C-terminal extension of 21 amino acids); also called wild-type AtcJ; AtcJ-WT
B3: pep21, synthetic peptide corresponding to the last 21 amino acids of AtcJ (peptide)
peptide: NNVIVTDPNSAMRELWDQFYP
notes: last 21 amino acids of AtcJ (SO_1850) of Shewanella oneidensis (94 amino acids; N74 is the first residue of the extension); The methods sentence says 'last 21 amino acids of AtcC'; results and legends say AtcJ; also called the peptide

Assays:
AtcC-6His (SO_1846) [1] = molecular target: T1, AtcC-6His (SO_1846); assay: pull-down; settings: both partners purified
[2] = molecular target: DnaK-6His from S. oneidensis (Shewanella oneidensis MR-1, UniProt Q8EHT7 1-639); assay: cell-based or functional assay
AtcC-6His (SO_1846) [3] = molecular target: T1, AtcC-6His (SO_1846); assay: ITC; 25 °C, buffer B (50 mM Tris-HCl, 100 mM KCl, 10% glycerol, 1 mM DTT); 285 µM ligand titrated into 36 µM AtcC in the cell; one set of sites model; settings: both partners purified

Chain of DnaK-6His from S. oneidensis (Q8EHT7 whole entry): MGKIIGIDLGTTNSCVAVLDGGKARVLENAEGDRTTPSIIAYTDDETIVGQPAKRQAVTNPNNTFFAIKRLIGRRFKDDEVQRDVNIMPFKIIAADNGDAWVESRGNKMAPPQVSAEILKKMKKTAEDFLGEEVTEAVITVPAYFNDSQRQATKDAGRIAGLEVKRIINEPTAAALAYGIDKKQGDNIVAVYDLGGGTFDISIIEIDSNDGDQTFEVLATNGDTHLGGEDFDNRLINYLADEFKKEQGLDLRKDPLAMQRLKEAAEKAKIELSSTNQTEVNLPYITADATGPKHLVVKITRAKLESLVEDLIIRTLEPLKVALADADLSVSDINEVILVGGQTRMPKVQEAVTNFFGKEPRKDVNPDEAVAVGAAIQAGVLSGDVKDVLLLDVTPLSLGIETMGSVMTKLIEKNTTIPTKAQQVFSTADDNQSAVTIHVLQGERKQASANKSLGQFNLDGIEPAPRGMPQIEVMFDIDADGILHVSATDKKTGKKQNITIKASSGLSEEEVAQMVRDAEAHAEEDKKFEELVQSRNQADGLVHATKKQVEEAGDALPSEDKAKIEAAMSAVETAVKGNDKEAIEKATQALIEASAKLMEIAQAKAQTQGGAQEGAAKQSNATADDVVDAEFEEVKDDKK

| binding result (AtcC-6His (SO_1846) [1]) | stimulation of the ATPase activity of DnaK in the presence of GrpE (2 µM) from S. oneidensis [2] | Kd (AtcC-6His (SO_1846) [3]) | stoichiometry N (AtcC-6His (SO_1846) [3]) | Binder |
| --- | --- | --- | --- | --- |
| binds |  |  |  | B1 |
|  | 2.7 fold | 7 ± 2 nM | 1 | B2 |
|  |  | 80 ± 12 nM |  | B3 |
